Experiment: label from the status in PepcDB records

Sequence	protein production
DDSLGEAVTTRAEALTIPAVLRARNLLSTTVARTPLVCDGTLPPFVPVAAPPGAATMQTPFHRMLATADDLLFNGVACWALDRDESGTCIGAIHIPLDTWQIEENTVRVNGKAVDPMEVCIFVGIHGGLLTHASETFTDARNLVRAAARVAQNPAALIELRQTNNAQLSPDDVDRIINGYVAARRGRNSGVGFSSSGLEVHEHEMAKENLLIEGRNAAAVDVARAMNVPAAFIDATVGGTSLSYQNAASRMIELVTFGVEPLMSAIEARLNQPDMHADHLANPLKFDPAALLDAIPTTPTIGAQPHGENS	not failed
DEETKAFEALLSNIVKPVASDIQARTVVLTWSPPSSLINGETDESSVPELYGYEVLISSTGKDGKYKSVYVGEETNITLNDLKPAMDYHAKVQAEYNSIKGTPSEAEIFTTLSCEPDIPNPPRI	not failed
DEGYWDCSVCTFRNSAEAFKCMMCDVRKGTSTRKPRPVSQ	not failed
DFELLHKLGGGNYGDVHLASVKDCNFVCALKRLSIKKLADFDIATQLRREIEIAFNTRHKYLLRTYAYFFDETDIYLIMEPCSNGMLYTELNRVKCFAPPTAARYVAQLAEALLYLHQHHILHRDIKPENILLDHNNNIKLADFGWSVHDPDNRRKTSCGTPEYFPPEIVGRQAYDTSADLWCLGIFCYELLVGKTPFVGKDTDQICKNIHSMHFKIPENIPSEAKDLIANLLLRDGSRRLALHRVVNHQFLLKYYYLPNNL	not failed
DFPKINHGILYDEEKYKPFSQVPTGEVFYYSCEYNFVSPSKSFWTRITCAEEGWSPTPKCLRLCFFPFVENGHSESSGQTHLEGDTVQIICNTGYRLQNNENNISCVERGWSTPPKCRSTISAEKCGPPPPIDNGDITSFLLSVYAPGSSVEYQCQNLYQLEGNNQITCRNGQWSEPPKCLDPCVISQEIMEKYNIKLKWTNQQKLYSRTGDIVEFVCKSGYHPTKSHSFRAMCQNGKLVYPSCEEK	not failed
DFRASATRPFTGEEYLASLRDDREIYIYGDRVKDVTSHPAFRNAAASMARLYDALHDPQSKEKLCWETDTGNGGYTHKFFRYARSADELRQQRDAIAEWSRLTYGWMGRTPDYKAAFGSALGANPGFYGRFEDNAKTWYKRIQEACLYLNHAIVNPPIDRDKPVDQVKDVFISVDEEVDGGIVVSGAKVVATNSALTHYNFVGQGSAQLLGDNTDFALMFIAPMNTPGMKLICRPSYELVAGIAGSPFDYPLSSRFDENDAILVMDKVFIPWENVLIYRDFERCKQWFPQGGFGRLFPMQGCTRLAVKLDFITGALYKALQCTGSLEFRGVQAQVGEVVAWRNLFWSLTDAMYGNASEWHGGAFLPSAEALQAYRVLAPQAYPEIKKTIEQVVASGLIYLPSGVRDLHNPQLDKYLSTYCRGSGGMGHRERIKILKLLWDAIGSEFGGRHELYEINYAGSQDEIRMQALRQAIGSGAMKGMLGMVEQCMGDYDENGWTVPHLHNPDDIN	failed
DGAVQYYDGAVTEITEQKRQEQQLRQSRERWRRLVEKLQDGLHIAVDGDIRYINPAGAEILGADAPDDVIGHSLWDFVALEQAQQEIFEDRLRKIYRERTSTAPQEMEITGLNGERRVIESYTVPIKFDGEQAGQTVFRDITEQKEMEQALREREARLRSITENVS	failed
DHKDLIVVAAKHGYALADRNTGQLSYIRKVWDEQEDPEKARRMRFNDGAVDSHGRFWAGSMNDPKVQKPTNEGVLFRLDPDLQLHRMVEGVSIPNGIGWNLRDDTMYFTDSPTAKIFAFDFDASTGTISNRRVHYDVGEPMEPDGFAIDEEGCIWSAIYGGGKIIRISPEGKLIGEISFPTRNITCPTFVGTELFVTTAKDDVNDEQFPESVRYGGRVYRIDVGVRGKPKNEFRFQK	failed
DIENSPIKDDNSIIEIFSYGCHYCAINEDNVSQLENRMPEGTRFIRLHISSDKTTGLGRFAPVFATLSVMGIEPQHRQSAYKAVLDDNSDLSDNRQLETWLKANDIDVAKYQQVSQSAEVKALISYMTAVTAHYKIDATPTFIVGKKWIALQDREFPAFSDHLLSLLEHD	failed
DISSTEIWDAIRRNSFLLYYQPKVDAKTNELIGFEGLIRLKTATAILAPADFFEDIALLNATREMQDFVAETAIEQINQLGGRFSISINIPAHYVVSSNYMTFLYDYVKEHLKYPECLEIEIIERGEITELAVADKNLRKIKKLGVTVSMDDFGKGYSSLAYLRSLPIDIVKTDMSFIALLKTDRKQQIIIQAIVNLCHDLGGKVVTEGVEDIEQVKTLREMKVDYFQGYYFSRP	not failed
DLDGLLQRTVERARDMLDADSAFLLLATDDETELEVRASTGLPSARQRFARVPVDAGPGRYGSARMPAVHDDLTAVPGAVPLLSGTGMRSVVTVPLKVEGRLTGSLGVAAESPSRYSNEEALRLQFAADRIALAVESA	failed
DLEFQKGVEQILNQYFNSELASGNTKYSEGVYAVVLNPNTGAVLSMAGLEHDLKTGEVSSNALGAVTEVFTPGSVVKGATLTAGWENGVLSGNQVLNDQPIQFAGSSPINSWFTNGSTPLTASQSLEYSSNTYMVQLALKLMGQDYHSGMTLSTDGYKEAMEKLRATYAQYGLGVSTGIDLPGESKGYTPEHYDPSNVLTESFGQFDNYTAMQLAQYAAAVANGGKRIAPHLVEGIYDNNKTGGLGNLVQSIDTKVLNNVSISSDDMGIIKEGFYNVVNGGSYATGKTLAKGASVPISAKTGTAEAYVTGDDGKSVYTSNLNVVAYAPSSNPQIAVAVVLPHETDLHGTTSHAITRDIINLYQKMYPMNQ	failed
DLEVHGDKDDAELLIIGWGGTYGHLYETMERMRNAGKKVALAHFRFINPLPKNTAEVLQRYPKAVVAEQNLGQFALYLRGEVPGFHPLQFNRVTGQPLVMSEMVEVFTQMMEEK	failed
DLQAYLQAHYDVLEGKIQLDINGTEIQKGVWVGSGAIIEPGAILNPPCVIGDNCRIESGAVIDSLSVIGNNNVIERDSSVKRSVIWDGNYIEYGSK	failed
DLRSLFQTTVTEVRKLLVADRVMIIKVRQNKNFSWGEIQAEAQTDDKLCLLPPKERVPLSSRWIDHFAKGLILAMDDTDDQRADFDQSMLALAKANLVVPLFSGDRLWGVLSVHQCDGPRVWESSDIEFALKIALNLGVALQQAELLTESQRRSTALQSALGEVEAQKDYLARIAEEERALTRVIEGIRQTL	failed
DPDEDSDNSAIYVQGLNDSVTLDDLADFFKQCGVVKMNKRTGQPMIHIYLDKETGKPKGDATVSYEDPPTAKAAVEWFDGKDFQGSKLKVSLARKKPPMN	not failed
DRNSYSKTDYDATFMRMKEDHMKNGQLKPGYNLQIATNSQFVLSYNVYQNPTDTRTMIPFLNSIQETYGHLPEYIVADAGYGSESNYKAIIDDFNRTPLITYGMFIKDKTKKYKSDIFNTQNWNYDEIN	failed
DSGYSRETRALLFRAYRHDPTFAYLFNAEREGYEQRVLATIRQLVKQHFLQNQPALGLFLEDRLVGVALIAPPLRRLGVTESWAWRLRMVMDTGLGCTQRYLAYYNAVLACLPSETVHVLPLIGLDPEFQGQKMGQDLSEQLLAALHDWCAVDENSQGIVVDTGNPRYLEFYKRQGYEEIGEIAVGPV	not failed
DSKDLALCSMILTEMETHEDAWPFLLPVNLKLVPGYKKVIKKPMDFSTIREKLSSGQYPNLETFALDVRLVFDNCETFNEDDSDIGRAGHNMRKYFEKKWTDTFK	not failed
DSSMKTDVVEHDKDYVVTAELPGFKKDDIHVDYHDETLRISGKTEVNQSAKDDDGRILRQERRSQNVARSFYLPGIDLKNVKATYADGILTLTLPKQTEVDGSHEISID	failed
DTRWLAFNIQRAVFSDRRVREAITLAFDFEWMNKALFYNAWSRTNSYFQNTEYAARNYPDAAELVLLAPMKKDLPPEVFTQIYQPPVSKGDGYDRDNLLKADKLLNEAGWVLKGQQRVNATTGQPLSFELLLPASSNSQWVLPFQHSLQRLGINMDIRKVDNSQITNRMRNRDYDMMPRLWRAMPWPSSDLQISWSSEYINSTYNAPGVQSPVIDSLINQIIAAQGNKEKLLPLGRALDRVLTWNYYMLPMWYMA	failed
DVTYDGHPVPGSPYTVEASLPPDPSKVKAHGPGLEGGLVGKPAEFTIDTKGAGTGGLGLTVEGPCEAKIECSDNGDGTCSVSYLPTKPGEYFVNILFEEVHIPGSPFKADIEMPFDPS	not failed
EALQGLLGAGWWELCPDTAEILLASRLAASLHLPEDGARLNVQAWLELIHPADRGELSSRLQELKLGKPLLLNVRLHEPDPSAPQRWYRLQGQALGRGESQRLVGFMLDISD	failed

— a protein production outcome set (Wang et al. 2014)
